The source of these data is PMC12008772, “Transcription Factor SsNdt80b Maintains Optimal Expression of SsSNF1 to Modulate Growth and Pathogenicity in Sclerotinia sclerotiorum”.

The series has as its target T1, SsNdt80b-His (Sclerotinia sclerotiorum, UniProt A0A1D9PYE1 1-599).
T1 sequence: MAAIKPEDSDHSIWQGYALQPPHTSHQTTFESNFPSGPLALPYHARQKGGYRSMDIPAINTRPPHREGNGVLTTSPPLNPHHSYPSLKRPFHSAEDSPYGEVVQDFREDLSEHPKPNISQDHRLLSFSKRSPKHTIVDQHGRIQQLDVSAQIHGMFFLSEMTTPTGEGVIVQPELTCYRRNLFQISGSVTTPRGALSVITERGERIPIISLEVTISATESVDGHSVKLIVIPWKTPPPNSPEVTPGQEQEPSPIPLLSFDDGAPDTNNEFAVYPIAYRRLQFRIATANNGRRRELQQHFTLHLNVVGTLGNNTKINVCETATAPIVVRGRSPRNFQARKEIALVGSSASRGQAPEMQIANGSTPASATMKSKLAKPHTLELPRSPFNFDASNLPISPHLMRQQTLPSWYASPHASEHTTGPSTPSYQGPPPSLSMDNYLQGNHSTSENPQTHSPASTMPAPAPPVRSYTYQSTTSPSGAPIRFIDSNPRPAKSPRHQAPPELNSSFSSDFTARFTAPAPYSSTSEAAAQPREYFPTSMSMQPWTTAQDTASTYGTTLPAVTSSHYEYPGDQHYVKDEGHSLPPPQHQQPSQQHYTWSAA
The series can be described thus: EMSA; LightShift Chemiluminescence EMSA Kit binding buffer (composition not given); protein 5 min on ice, then probe 30 min at room temperature; 6% native PAGE. To be noted: protein: recombinant; tags: His; label: 5'-biotin on strand 1; printed biotin strand is 39 nt, reverse strand 40 nt: 1 nt 5' overhang (T) on strand 2; unlabelled forward oligo S65 is 40 nt and blunt with S64.

B1: P-SsSNF1 biotin probe (dsDNA)
DNA 1: TGAAGAGCAGCTGGAACCACAAATCAACTTTTCCTTTAA
DNA 2: TTTAAAGGAAAAGTTGATTTGTGGTTCCAGCTGCTCTTCA
Turning to B1, the binding result is on record as “binds”.
